Measured values from PMC7617879.

Target: catalytic domain of MMP-14 (MMP-14CAT) (human)
Test: enzyme inhibition assay

B1: N-TIMP2-S31PrK, P16035 27-153 (domain or fragment)
chain: CSCSPVHPQQAFCNADVVIRAKAVSEKEVDKGNDIYGNPIKRIQYEIKQIKMFKGPEKDIEFIYTAPSSAVCGVSLDVGGKKEYLIAGKAEGDGKMHITLCDFIVPWDTLSTTQKKSLNHRYQMGCE
modifications: here or on the partner: propargyl lysine (PrK) at position 31
Q: With B1 as the binder, how does the Ki read?
A: The Ki was 1.57 nM.
